First the molecules themselves.
B1: Synaptogenesis protein syg-1 (Caenorhabditis elegans), B1Q236 (parent)
chain: MVRWQTWPLLLLFQLVTCQQLQQRIVEAPKDTLAAVGETAILTCRVEHQQGPVQWMKDDFGLGTDRDKPLPGNKRYRMVGSAANGEYNLEISNVTLFDDDDFACQISESDHAKAVVSSKAKLTVLVRPTPPKIVKSHHSLKAIAGDPITQSCLSRKGKPPPTIGWAIASDEHGKHIVSWLGESRSKFGGIHAKPEISQETVIAHVNETTQVEEGGNNSREDSSIYSIMSNLSFIPRPEDDHKYLICISQHMTFPNKIEVDSVKLSLRYAPQINLTVASKLPLRENGSALLACNVNAKPLDNVKISWYKGNQKLRETGDTLTFETLKMEDHNRDIFCEATNEIGTTRGSIKLNVAFGARIMSTSQDKEVNEGDNAFFHCATLANPAPAIFWTRGDSDEIIGHGENLTLENVRTWQQGNYNCTATVEGFRKQILSHYLHIRGPPTVSMKDEVSASLDEATEIICEISGRPKTNNVRWTVNGKEINFNNGRITVHQYPKPYGKESILKIKDLKEEDFGVYNCSANNGLGFDNRGTLLKKRNILDWIVITAKFDRMVALAIISAGVLLVSLLCCLCMCRSNCRSRKSKFIDDQSDVTVKCEALDGQYFPEMYSSSPVDNVHLSTKDYISIPQNNPDLDFLGATGSFGPPGGLYPKCFNNSANEYIYNRYEHSYGSFGSGLSTPGGVSDMYGVAMSDKLPVMETLQEVETPKTSNYNFLSSPEVVRPISRTSTHV
partner: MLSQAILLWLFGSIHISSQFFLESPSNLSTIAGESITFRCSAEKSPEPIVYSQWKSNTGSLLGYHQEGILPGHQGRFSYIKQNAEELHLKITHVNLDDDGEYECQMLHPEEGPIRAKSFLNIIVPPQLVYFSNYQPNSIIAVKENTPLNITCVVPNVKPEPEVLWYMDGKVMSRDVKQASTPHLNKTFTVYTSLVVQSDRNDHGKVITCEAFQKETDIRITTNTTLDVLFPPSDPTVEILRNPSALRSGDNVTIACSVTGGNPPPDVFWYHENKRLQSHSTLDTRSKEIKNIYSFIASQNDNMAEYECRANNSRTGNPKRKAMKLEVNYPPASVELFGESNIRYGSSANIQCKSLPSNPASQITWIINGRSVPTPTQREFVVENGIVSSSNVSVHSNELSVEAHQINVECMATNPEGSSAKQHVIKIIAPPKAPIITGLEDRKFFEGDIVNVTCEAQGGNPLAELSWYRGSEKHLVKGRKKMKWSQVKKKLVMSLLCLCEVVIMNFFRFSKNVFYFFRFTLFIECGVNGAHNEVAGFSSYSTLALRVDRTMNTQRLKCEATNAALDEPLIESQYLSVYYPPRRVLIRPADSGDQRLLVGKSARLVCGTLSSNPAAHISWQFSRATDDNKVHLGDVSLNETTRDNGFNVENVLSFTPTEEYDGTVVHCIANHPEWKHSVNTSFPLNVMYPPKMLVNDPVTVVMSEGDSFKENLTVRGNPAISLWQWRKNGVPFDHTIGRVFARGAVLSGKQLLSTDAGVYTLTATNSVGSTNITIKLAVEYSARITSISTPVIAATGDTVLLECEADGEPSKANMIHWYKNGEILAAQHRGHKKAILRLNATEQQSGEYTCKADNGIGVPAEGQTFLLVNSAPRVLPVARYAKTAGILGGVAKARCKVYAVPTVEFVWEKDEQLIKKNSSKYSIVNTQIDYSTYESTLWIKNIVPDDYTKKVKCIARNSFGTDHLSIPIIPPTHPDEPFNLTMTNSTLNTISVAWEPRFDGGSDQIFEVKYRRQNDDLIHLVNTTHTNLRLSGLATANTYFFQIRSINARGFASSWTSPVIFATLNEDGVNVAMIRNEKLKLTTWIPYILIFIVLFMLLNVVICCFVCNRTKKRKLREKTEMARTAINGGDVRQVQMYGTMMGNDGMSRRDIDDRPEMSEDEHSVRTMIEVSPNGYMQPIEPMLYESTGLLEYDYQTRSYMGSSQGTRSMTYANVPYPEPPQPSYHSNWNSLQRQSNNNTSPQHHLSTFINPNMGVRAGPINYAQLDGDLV
B2: Synaptogenesis protein syg-2 (Caenorhabditis elegans), Q9U3P2 (parent)
chain: B1 partner
partner: B1 chain

We go through nine variants from IntAct's records for PubMed 24485456.

Variants of B1 are the subject of one test. As to conditions: with syg2_caeel syg-2, Q9U3P2.
For the variant Q105A, the “effect of a mutation on the interaction” value is recorded as “decreasing interaction strength”.
On the same count and under the same terms, under F60A stands “disrupting interaction strength”; under Q54A, “decreasing interaction strength”; under Q54A;M56A;F60A;S107A, “disrupting interaction strength”.
Take Q54A;F60A: the “effect of a mutation on the interaction” value is reported as “disrupting interaction strength”.

The variants in the next test derive from B2. To be noted: with syg1_caeel syg-1, B1Q236.
With L61A, the “effect of a mutation on the interaction” value is on record as “decreasing interaction strength”.
Q53A: the “effect of a mutation on the interaction” value is “decreasing interaction strength”.
On the same count and under the same terms, under Q105A stands “disrupting interaction strength”.
Take R115A: the “effect of a mutation on the interaction” value is on record as “decreasing interaction strength”.
